The text below walks through data of publication PMC7826336.

For test [1], the target named is prekallikrein (PK). Kind of test: SPR; Pioneer biosensor, COOHV chip; PMSF-treated PK (FC-1) or PKa (FC-3) immobilised by amine coupling; analytes diluted to 250 nM, OneStep gradient injection, 30 uL/min, dissociation 600 s; 22 °C; 10 mM Hepes, 140 mM NaCl, 1.5 mM CaCl2, 40 uM ZnCl2 pH 7.4; simple ka/kd 1 or 2 binding site model. A general note: Surface plasmon resonance follows binding to a sensor surface in real time, without labels.

Test [2] deals with kallikrein (PKa) (UniProt P03952). The test is described as above.
kallikrein (PKa), sequence (P03952 20-390, chain 1 of 2): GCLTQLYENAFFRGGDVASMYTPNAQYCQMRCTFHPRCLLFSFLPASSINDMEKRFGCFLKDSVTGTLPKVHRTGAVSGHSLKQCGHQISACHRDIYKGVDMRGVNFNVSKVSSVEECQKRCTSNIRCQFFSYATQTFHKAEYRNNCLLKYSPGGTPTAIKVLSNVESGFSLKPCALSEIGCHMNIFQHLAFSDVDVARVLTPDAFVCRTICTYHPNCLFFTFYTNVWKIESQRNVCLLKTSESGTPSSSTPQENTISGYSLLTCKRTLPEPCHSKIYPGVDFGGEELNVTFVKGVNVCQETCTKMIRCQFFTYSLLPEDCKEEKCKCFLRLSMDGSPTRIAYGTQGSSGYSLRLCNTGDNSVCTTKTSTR
kallikrein (PKa), sequence (P03952 391-638, chain 2 of 2): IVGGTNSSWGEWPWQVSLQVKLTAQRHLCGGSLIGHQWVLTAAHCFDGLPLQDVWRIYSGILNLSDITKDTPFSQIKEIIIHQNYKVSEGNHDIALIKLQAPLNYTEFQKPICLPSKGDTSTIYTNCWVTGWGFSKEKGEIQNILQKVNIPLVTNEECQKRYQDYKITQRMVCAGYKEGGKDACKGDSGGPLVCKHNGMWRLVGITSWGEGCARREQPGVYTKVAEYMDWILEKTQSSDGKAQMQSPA

One may read the Kd as the equilibrium constant for the complex coming apart. A high value points to a looser complex. One may read the koff as the first-order rate constant of dissociation. A high value points to fast dissociation. One may read the kon as the second-order rate constant of association. In test [1], “Factor IX (FIX) (from UniProt P00740 47-461) (natural protein)” yielded a dissociation constant Kd of 2.17 nM, a dissociation rate constant (koff) of 0.000239 s⁻¹ and a kon of 110000 M⁻¹ s⁻¹.
On to “activated Factor IX (FIXa) (from UniProt P00740 47-191; P00740 227-461) (enzyme)”, for which, in test [1], the Kd was determined as 0.492 nM, the koff came out at 6.45e-05 s⁻¹ and the kon is 131000 M⁻¹ s⁻¹.
For the substance “high molecular weight kininogen (HK) (natural protein)”, in test [2], the Kd was determined as 0.272 nM, the koff came out at 2.82e-05 s⁻¹ and the kon is 104000 M⁻¹ s⁻¹. For the same substance, in test [1], the Kd is 0.245 nM, the koff was 3.73e-05 s⁻¹ and the kon came to 152000 M⁻¹ s⁻¹.
